Assay results taken from paper PMC4212957, “The serodominant secreted effector protein of Salmonella, SseB, is a strong CD4 antigen containing an immunodominant epitope presented by diverse HLA class II alleles” (Immunology, 2014).
Residues, ends and D or L forms follow the SMILES beside them.

What was measured:
HLA-DRB1*03:01 = biological target: T1, HLA-DRB1*03:01 (Homo sapiens, UniProt P01903+P01911, A100K/A102G/A103R/A169T/F55Y/I96L/K41T/L162R/M171V/P40S/Q125H/Q178H/Q39Y/R42S/S66N/T106N/T262R/W38E/Y61H); test: Peptide/HLA-DR binding, competitive ELISA; details: ratio IC50 of peptide / IC50 of reference peptide MT2-16, lower = higher affinity, ratio 20 or less high, 20–100 moderate, three independent experiments
T1 construct: HLA-DR heterodimers were purified from homozygous Epstein–Barr virus B-lymphoblastoid cell lines; host or cells: homozygous EBV B-lymphoblastoid cell line
Experimental: (§1) HLA-DR heterodimers were purified from homozygous Epstein–Barr virus B-lymphoblastoid cell lines (HPA Culture Collections, Salisbury, UK) by affinity chromatography with the monomorphic HLA-DRα monoclonal antibody, L243.[29],[30] Binding of the SseB peptide panel to the HLA-DR molecules HLA-DRB1*01:01, 03:01, 04:01, 07:01, 09:01, 11:01, 12:02, 15:01, 15:02 was assessed by competitive ELISA, as previously described, using an automated workstation.[29],[30] We evaluated the peptide concentration able to prevent binding of 50% of the labelled peptide (IC50). Data were expressed as relative affinity: ratio of the IC50 of the peptide to the IC50 of the reference peptide, which is a high binder to the HLA class II molecule. Unlabelled forms of the biotinylated peptides were used as reference peptides.

HLA-DRB1*09:01 = biological target: T2, HLA-DRB1*09:01 (Homo sapiens, UniProt P01903+P01911, A100R/A103E/D57H/D86V/F55Y/F60I/F76Y/I96F/K127E/L162R/M171V/P40D/Q125H/Q99R/R33Q/R42F/S133A/S66N/T210M/V115G/W38K/Y107V/Y59G/Y89S); test: Peptide/HLA-DR binding, competitive ELISA; details: for Relative binding affinity of peptide to HLA-DR molecules DRB1*0901: ratio IC50 of peptide / IC50 of reference peptide CTP 427–441, lower = higher affinity, ratio 20 or less high, 20–100 moderate, three independent experiments
T2 construct: HLA-DR heterodimers were purified from homozygous Epstein–Barr virus B-lymphoblastoid cell lines; host or cells: homozygous EBV B-lymphoblastoid cell line
Experimental: as §1

HLA-DRB1*12:02 = HLA-DRB1*12:02 (Homo sapiens, UniProt P01903+P01911, A100R/A169T/D57E/D86V/F55L/H45Y/I96F/K41T/L162R/M171V/P40S/Q125H/Q178H/Q39Y/Q99D/R42G/S66L/T262R/V114A/V67L/W38E/Y59H/Y61H/Y89S); test: Peptide/HLA-DR binding, competitive ELISA; details: for Relative binding affinity of peptide to HLA-DR molecules DRB1*1202: ratio IC50 of peptide / IC50 of reference peptide TFR 141–155, lower = higher affinity, ratio 20 or less high, 20–100 moderate, three independent experiments
Experimental: as §1

HLA-DRB1*15:01 = biological target: T3, HLA-DRB1*15:01 (Homo sapiens, UniProt P01903+P01911); test: Peptide/HLA-DR binding, competitive ELISA; details: ratio IC50 of peptide / IC50 of reference peptide A3 152–166, lower = higher affinity, ratio 20 or less high, 20–100 moderate, three independent experiments
T3 construct: HLA-DR heterodimers were purified from homozygous Epstein–Barr virus B-lymphoblastoid cell lines; host or cells: homozygous EBV B-lymphoblastoid cell line
Experimental: as §1

HLA-DRB1*15:02 = biological target: T4, HLA-DRB1*15:02 (Homo sapiens, UniProt P01903+P01911, V115G); test: Peptide/HLA-DR binding, competitive ELISA; details: for Relative binding affinity of peptide to HLA-DR molecules DRB1*1502: ratio IC50 of peptide / IC50 of reference peptide TFR 607–620, lower = higher affinity, ratio 20 or less high, 20–100 moderate, three independent experiments
T4 construct: HLA-DR heterodimers were purified from homozygous Epstein–Barr virus B-lymphoblastoid cell lines; host or cells: homozygous EBV B-lymphoblastoid cell line
Experimental: as §1

HLA-DRB1*01:01 = HLA-DRB1*01:01 (Homo sapiens, UniProt P01903+P01911, A100R/D57E/F55L/F60I/F76Y/I96L/L162R/M171V/P40L/Q125E/R42F/V115G/Y59C); details: competitive ELISA; ratio IC50 of peptide / IC50 of reference peptide HA 306–318; lower = higher affinity; ratio 20 or less high, 20–100 moderate; three independent experiments
HLA-DRB1*04:01 = HLA-DRB1*04:01 (Homo sapiens, UniProt P01903+P01911, A100K/A169T/F76Y/I96L/K127E/L162R/M171V/N62H/P40V/Q125Y/R42H/S133A/S149N/S66Y/V115G/V209L/W38E); details: competitive ELISA; ratio IC50 of peptide / IC50 of reference peptide HA 306–318; lower = higher affinity; ratio 20 or less high, 20–100 moderate; three independent experiments
HLA-DRB1*07:01 = HLA-DRB1*07:01 (Homo sapiens, UniProt P01903+P01911, A100R/A102G/A103Q/D57E/D86V/E43K/F76Y/K127E/L162R/M171V/P40G/Q125H/Q99D/R33Q/R42Y/R54Q/S133A/S66F/T210M/V115G/Y107V/Y59L/Y89S); details: competitive ELISA; ratio IC50 of peptide / IC50 of reference peptide HA 306–318; lower = higher affinity; ratio 20 or less high, 20–100 moderate; three independent experiments
HLA-DRB1*11:01 = HLA-DRB1*11:01 (Homo sapiens, UniProt P01903+P01911, A100R/A169T/A87E/I96F/K41T/L162R/M171V/P40S/Q125H/Q178H/Q39Y/Q99D/R42S/S66Y/T262R/V115G/W38E); details: competitive ELISA; ratio IC50 of peptide / IC50 of reference peptide HA 306–318; lower = higher affinity; ratio 20 or less high, 20–100 moderate; three independent experiments

Compound | Relative binding affinity of peptide to HLA-DR molecules DRB1*0301 (HLA-DRB1*03:01) | Relative binding affinity of peptide to HLA-DR molecules DRB1*0901 (HLA-DRB1*09:01) | Relative binding affinity of peptide to HLA-DR molecules DRB1*1202 (HLA-DRB1*12:02) | Relative binding affinity of peptide to HLA-DR molecules DRB1*1501 (HLA-DRB1*15:01) | Relative binding affinity of peptide to HLA-DR molecules DRB1*1502 (HLA-DRB1*15:02) | Relative binding affinity of peptide to HLA-DR molecules DRB1*0101 (HLA-DRB1*01:01) | Relative binding affinity of peptide to HLA-DR molecules DRB1*0401 (HLA-DRB1*04:01) | Relative binding affinity of peptide to HLA-DR molecules DRB1*0701 (HLA-DRB1*07:01) | IC50 (HLA-DRB1*12:02; DRB1*1202, unlabelled form of the biotinylated peptide, read-out: IC50 of reference peptide) [nM] | IC50 (HLA-DRB1*09:01; DRB1*0901, unlabelled form of the biotinylated peptide, read-out: IC50 of reference peptide) [nM] | Relative binding affinity of peptide to HLA-DR molecules DRB1*1101 (HLA-DRB1*11:01) | IC50 (HLA-DRB1*15:02; DRB1*15:02, unlabelled form of the biotinylated peptide, read-out: IC50 of reference peptide) [nM]
3: SseB overlapping library peptide, residues 21–40 (GVSNADTGSQDDLSQQNPFA) [Peptide 3] | > 119 | > 689 | > 136 | > 270 | > 3 333 | > 4149 | > 145 | > 336 |  |  |  | 
CC[C@H](C)[C@H](NC(=O)[C@@H](NC(=O)CNC(=O)[C@@H](N)[C@@H](C)O)[C@@H](C)O)C(=O)N[C@@H](CCCCN)C(=O)N[C@@H](CC(C)C)C(=O)N[C@@H](CC(C)C)C(=O)N[C@@H](CC(N)=O)C(=O)N[C@@H](CCC(=O)O)C(=O)N[C@@H](CC(N)=O)C(=O)N[C@@H](CO)C(=O)N[C@@H](Cc1ccc(O)cc1)C(=O)N[C@H](C(=O)N1CCC[C@H]1C(=O)N[C@@H](CCCNC(=N)N)C(=O)O)C(C)C [TFR 141–155, reference compound] (H-TGTIKLLNENSYVPR-OH) |  |  |  |  |  |  |  |  | 73 |  |  | 
CC[C@H](C)[C@H](NC(=O)[C@H](CCCNC(=N)N)NC(=O)[C@H](CO)NC(=O)[C@@H](NC(=O)[C@H](C)NC(=O)[C@@H]1CCCN1C(=O)[C@H](CC(N)=O)NC(=O)[C@H](Cc1ccc(O)cc1)NC(=O)[C@H](Cc1ccccc1)NC(=O)CNC(=O)[C@H](Cc1c[nH]cn1)NC(=O)[C@@H](N)C(C)C)C(C)C)C(=O)N[C@H](C(=O)N[C@@H](CCC(=O)O)C(=O)N[C@@H](C)C(=O)O)C(C)C [CTP 427–441, reference compound] (H-VHGFYNPAVSRIVEA-OH) |  |  |  |  |  |  |  |  |  | 15 |  | 
7: SseB overlapping library peptide, residues 61–80 (FIEVQKNAERARNTQEKSNE) [Peptide 7] | 89 | > 689 | > 136 | 211 | > 3 333 |  | 109 | > 336 |  |  | > 278 | 
CC(C)C[C@H](NC(=O)[C@H](CC(C)C)NC(=O)[C@H](CCC(N)=O)NC(=O)[C@H](CO)NC(=O)[C@H](CC(N)=O)NC(=O)[C@H](Cc1ccc(O)cc1)NC(=O)[C@H](CCCNC(=N)N)NC(=O)[C@H](CCC(=O)O)NC(=O)[C@H](Cc1ccc(O)cc1)NC(=O)[C@H](CC(=O)O)NC(=O)[C@H](CC(C)C)NC(=O)[C@H](CC(N)=O)NC(=O)[C@@H](N)CC(C)C)C(=O)N[C@@H](CO)C(=O)O [TFR 607–620, reference compound] (H-LNLDYERYNSQLLS-OH) |  |  |  |  |  |  |  |  |  |  |  | 3
4: SseB overlapping library peptide, residues 31–50 (DDLSQQNPFAEGYGVLLILL) [Peptide 4] | > 119 | 28 | > 136 | 10 | 55 | 22 | > 145 | 6 |  |  |  | 
